Experimental data from patent US20110070246A1 (F HOFFMANN LAROCHE, published 2011).

T1: Soluble extracellular domain (ECD) of human CDCP1 (human, UniProt Q9H5V8 30-663)
T1 construct: also called CDCP1-ECD; hCDCP1-ECD
T1 sequence: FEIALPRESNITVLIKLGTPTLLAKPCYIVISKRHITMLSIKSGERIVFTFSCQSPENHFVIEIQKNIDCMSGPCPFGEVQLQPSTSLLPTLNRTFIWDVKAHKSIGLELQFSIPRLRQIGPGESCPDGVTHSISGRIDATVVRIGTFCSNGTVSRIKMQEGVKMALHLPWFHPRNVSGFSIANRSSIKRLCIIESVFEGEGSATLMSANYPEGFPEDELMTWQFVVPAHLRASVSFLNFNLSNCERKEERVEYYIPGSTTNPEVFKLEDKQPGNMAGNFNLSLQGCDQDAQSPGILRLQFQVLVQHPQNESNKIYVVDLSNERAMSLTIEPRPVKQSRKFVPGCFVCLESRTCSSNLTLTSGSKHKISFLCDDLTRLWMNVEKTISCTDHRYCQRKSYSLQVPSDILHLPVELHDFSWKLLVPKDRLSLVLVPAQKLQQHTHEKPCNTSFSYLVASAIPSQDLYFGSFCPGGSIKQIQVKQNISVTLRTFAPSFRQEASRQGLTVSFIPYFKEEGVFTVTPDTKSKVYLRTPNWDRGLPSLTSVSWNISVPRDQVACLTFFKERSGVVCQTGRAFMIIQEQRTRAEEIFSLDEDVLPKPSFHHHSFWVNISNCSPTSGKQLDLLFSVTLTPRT


Tests used:
[1] = molecular target: T1, Soluble extracellular domain (ECD) of …; assay: Biacore SPR, immobilized hCDCP1-ECD
[2] = molecular target: Short1 (huCDCP1_SH1_ECD aa1-216)_SBP (human) (UniProt Q9H5V8); assay: ELISA, SBP-CDCP1-Short1 captured on a streptavidin plate, antibody 0.1 ug in 50 ul, goat anti-mouse IgG-HRP, absorbance 370 nm/492 nm; the same antibody on Medium coating: 0,0420
[3] = molecular target: Short5 (hu CDCP1_SH5_ECD (aa 1-361)_SBP) (human) (UniProt Q9H5V8); assay: ELISA, SBP-CDCP1-Short5 captured on a streptavidin plate, antibody 0.1 ug in 50 ul, goat anti-mouse IgG-HRP, absorbance 370 nm/492 nm; the same antibody on Medium coating: 0,0420
[4] = molecular target: Short1 (huCDCP1_SH1_ECD aa1-216)_SBP (human) (UniProt Q9H5V8); assay: ELISA, SBP-CDCP1-Short1 captured on a streptavidin plate, antibody 0.1 ug in 50 ul, goat anti-mouse IgG-HRP, absorbance 370 nm/492 nm; the same antibody on Medium coating: 0,2330
[5] = molecular target: Short5 (hu CDCP1_SH5_ECD (aa 1-361)_SBP) (human) (UniProt Q9H5V8); assay: ELISA, SBP-CDCP1-Short5 captured on a streptavidin plate, antibody 0.1 ug in 50 ul, goat anti-mouse IgG-HRP, absorbance 370 nm/492 nm; the same antibody on Medium coating: 0,2330

| Kd [1] [nM] | koff [1] [s⁻¹] | kon [1] [M⁻¹ s⁻¹] | Absorption [2] | Absorption [3] | Absorption [4] | Absorption [5] | Binder |
| --- | --- | --- | --- | --- | --- | --- | --- |
| 0.52 | 0.00052 | 990000 | 0.787 | 1.04 |  |  | CUB4 antibody (Deposition No. DSM ACC2551), murine (antibody, V domains shown, Deposited murine monoclonal antibody; also called Mab CUB4; murine CUB4) VH: EVQLVESGGDLVKPGGSLKLSCAASGFTFNSYGMSWVRQTPDKRLEWVATISSGGSYTYYPDSVKGRFTISRDNAKNTLYLQMSSLKSEDTAMYYCARHPDYDGVWFAYWGQGTLVTVSA VL: QIVLTQSPAIMSASPGEKVTMTCSVSSSVFYVHWYQQKSGTSPKRWIYDTSKLASGVPARFSGSGSGTSYSLTISSMEAEDAATYYCQQWNSNPPTFGGGTKLEIK |
| 0.47 | 0.00022 | 460000 |  |  | 1.3 | 1.49 | Mab CDCP1-015 (antibody, V domains shown, also called CDCP1-0015; Murine CDCP1-015) VH: QVHLKQSGPGLVQPSQSLSITCTVSGFSLTNFGLHWVRQSPGKGLEWLGVIWSGGVTDYNAAFISRLSISKDNSKSQVFFKMNSLQPNDTAIYYCARNYDHDYSMDYWGQGISVSVSS VL: DVVLTQTPLSLPVIIGDQASISCKSTKSLLNSAGFTYLGWYLQKPGQSPQLLIYLVSNRFSGVPDRFSGSGSGTDFTLKISRVEAEDLGVYFCFQSSYLPLTFGSGTKLEIK |
